The results in this text go back to article PMC9468336, “The choanoflagellate pore-forming lectin SaroL-1 punches holes in cancer cells by targeting the tumor-related glycosphingolipid Gb3” (Communications Biology, 2022).

“And” between values parts separate entries of the source, which are not always exact repeats. Equal values may be shown once.

Data set [1] deals with T1, SaroL-1 (Salpingoeca rosetta, UniProt F2UID9).
T1 construct: gene PTSG_08235; monomeric in solution
In words: Isothermal titration calorimetry (MicroCal iTC200) at 25 °C in 20 mM Tris/HCl pH 7.5, 100 mM NaCl, ligand titrated into SaroL-1, one-site model with stoichiometry N fixed to 3. The format is binding. As for the experimental part:
Isothermal Titration Calorimetry (ITC)
ITC experiments were performed with MicroCaliTC200 (Malvern Panalytical). Experiments were carried out at 25 °C ± 0.1 °C. SaroL-1 and ligands samples were prepared in Buffer A. The ITC cell contained SaroL-1 in a concentration range from 0.05 mM to 0.16 mM. The syringe contained the ligand solutions in a concentration from 10 to 50 mM. 2 μL of ligands solutions were injected into the sample cell at intervals of 120 s while stirring at 750 rpm. Integrated heat effects were analysed by nonlinear regression using one site binding model (MicroCal PEAQ-ITC Analysis software). The experimental data were fitted to a theoretical curve, which gave the dissociation constant (Kd) and the enthalpy of binding (∆H).

The next data set relates to H1299 cells. The data set can be described thus: Cell proliferation (MTT) assay. The format is cell-based, human. As for the experimental part: The human lung epithelial cell line H1299 (American Type Culture Collection, CRL-5803) was cultured in a complete medium, consisting of Roswell Park Memorial Institute (RPMI) medium supplemented with 10% fetal calf serum (FCS) and 2 mM L-glutamine at 37 °C and 5% CO2. Cells were stimulated with different concentrations of SaroL-1 in a complete medium for indicated time points.
To investigate the cytotoxic effect of SaroL-1 on human cells, H1299 cells were treated with increasing concentrations of SaroL-1 for 24 h in a standard MTT assay. For the depletion of Gb3 from the plasma membrane, H1299 cells were treated with 2 µM PPMP for 72 h before the experiment. 3.5 × 10^4 cells per well were transferred to a 96-well plate with a U-bottom. The cells were centrifuged at 1600 × g for 3 min at RT. The cell pellet was re-suspended in 100 μL of variously concentrated protein solutions (3, 14, 27, 68, 135, 270, 680, 1360 nM) and transferred to a 96-well flat-bottomed plate. The cells were incubated for 24 h at 37 °C. Subsequently, 10 μL of MTT labelling solution (MTT Cell Proliferation Kit, Roche) was added to each well, and the cells were incubated for 4 h at 37 °C. Then, 100 μL of the solubilisation reagent was added to each well, and the plate was incubated at 37 °C overnight. The next day, the absorbance of the samples was measured at 550 nm using a BioTek microplate reader. To assess SaroL-1 cytotoxicity in the presence of the soluble sugar PNPG, 3.5 × 10^4 cells per well were transferred to a 96-well plate with a U-bottom. Variously concentrated protein solutions (3, 14, 27, 68, 135, 270, 680, 1360 nM) were preincubated with 10 mM PNPG dissolved in complete medium, for 15 min at RT. The cells were centrifuged at 1600 × g for 3 min at RT. Next, the cell pellet was re-suspended in 100 μL protein solution and transferred to a 96-well flat-bottomed plate. The cells were incubated for 24 h at 37 °C, and the MTT assay was performed as described above. The data was further analyzed using GraphPad Prism software.

Data set [2] addresses T1, SaroL-1. The data set can be described thus: Inhibition of SaroL-1 (217 nM) induced hemolysis of rabbit erythrocytes after 1 h pre-incubation of lectin with sugar at RT, then 1-2 h at 37 °C, absorbance of supernatant at 540 nm. The conditions noted are these: n = 2. The data set is classed as cell-based. As for the experimental part:
Hemolytic assay (HA) and inhibition of hemolytic activity (IHA)
Both HA and IHA assays were performed in U-shaped 96-well microtiter plates. In both cases, a control negative experiment was performed with Buffer A added to erythrocyte solution (2% final concentration), and the resulting value was subtracted from all data.
IHA was performed in U-shaped 96-well microtiter plates. […] 4% rabbit erythrocytes were added to the mixture in a 1:1 ratio and incubated for 1–2 h at 37 °C. The samples were centrifuged, 2600 × g for 15 min at RT, and the absorbance of the supernatant was measured at 540 nm by a Tecan reader.

Data set [3] in a line: Dextran influx into GUVs (pore formation). The format is biochemical. The conditions noted are these: for GUVs filled with dextran-AF488, average %: 3 kDa dextran; for GUVs filled with 70 kDa FITC-dextran, average %: 70 kDa dextran. The source says:
GUVs were composed of 1,2-dioleoyl-sn-glycero-3-phosphocholine (DOPC), cholesterol (both AvantiPolar Lipids, United States), Atto 647 N 1,2-dioleoyl-sn-glycero-3-phosphoethanolamine (DOPE; Sigma-Aldrich), and one of the following glycolipids at a molar ratio of 64.7:30:0.3:5. The glycolipids are globotriaosylceramide (Gb3, Matreya), FSL-Gb3 (Function-Spacer-Lipid with globotriaosyl saccharide), and corresponding FSL-isoGb3 (Function-Spacer-Lipid with iso-globotriaosyl saccharide) synthetized as previously described[84],[85], FSL-A(tri) (Function-Spacer-Lipid with blood group A trisaccharide; Sigma-Aldrich), FSL-B(tri) (Function-Spacer-Lipid with blood group B trisaccharide; Sigma-Aldrich) or lactosylceramide (LC, Sigma-Aldrich).
GUVs were prepared by the electroformation method as earlier described. Briefly, lipids dissolved in chloroform of a total concentration of 0.5 mg/mL were spread on indium tin oxid-covered (ITO) glass slides and dried in a vacuum for at least 1 h or overnight. Two ITO slides were assembled to create a chamber filled with sucrose solution adapted to the osmolarity of the imaging buffer of choice, either HBSS (live-cell imaging) or PBS (GUVs only imaging). Then, an alternating electrical field with a field strength of 1 V/mm was implemented for 2.5 h at RT. Later we observed the GUVs in chambers manually built as described.
Dextran Alexa Fluor 488 (Dextran-AF488) with a MW of 3 kDa (Thermo Fischer) or 70 kDa FITC-dextran (Sigma-Aldrich) was added to the observation chamber (0.02 mg/mL) in PBS buffer together with 200 nM SaroL-1. Then wt Gb3-containing GUVs (40 µL) were added for imaging and monitoring of pore-formation. Dextran-AF488 was present in the GUVs’ surrounding solution. For PNPG treatment, 200 nM of SaroL-1 was pre-incubated with 10 mM PNPG dissolved in DMSO for 15 min at RT in the observation chamber. Directly after, dextran-AF488 (0.02 mg/mL) and 40 µL wt Gb3-containing GUVs were added to the observation chamber and monitored using confocal microscopy.

The mark [4] stands for this setting: 200 nM SaroL-1, 30 min, listed as SaroL1.
Where [5] appears, read: 200 nM SaroL-1, 120 min, listed as SaroL1.

Regarding `O=[N+]([O-])c1ccc(O[C@H]2O[C@H](CO)[C@H](O)[C@H](O)[C@H]2O)cc1` [PNPG, p-nitrophenyl-α-D-galactopyranoside], the dissociation constant Kd (usually the constant that tells how readily two partners part at equilibrium) at SaroL-1 [1] worked out at 1.01 mM. Also, the “reduction of SaroL-1-induced cell death” value with H1299 cells (SaroL-1 (3-1358 nM) pre-incubated with 10 mM PNPG, 24 h) is > 90%. Further, the IC50 at SaroL-1 [2] came out at 2.9 mM. The “GUVs filled with dextran-AF488, average %” value in data set [3] (200 nM SaroL-1 pre-treated with 10 mM PNPG, 0 min) was 0%; in data set [3] (200 nM SaroL-1 pre-treated with 10 mM PNPG, 60 min), 0.4205%; in data set [3] (200 nM SaroL-1 pre-treated with 10 mM PNPG, 120 min) it was 4% and 4.251%.

B1: SaroL-1: Recombinant pore-forming lectin of Salpingoeca rosetta (UniProt F2UID9, 329 amino acids) with β-trefoil and aerolysin-like domains (protein)
chain: MSSTFEPATDSPLPVPGVQYFLQHVQSGKYVHPHGGSDMPGNDTALVLHHGFDEKRDALRWVFVNDAENKHQLKHYSSGKFVHPKGGKVGKEATLVVHSSPGRPETMIEMVQEDGRTYLRHTDSDYYVHPHGGSPNPGDNTRLVYYSGYRPSLAFLAIPAETLFVDRIEIHQAQALESINTITSLSDEHRNDTDQPVQTSISVALEESLQDSAQLSFERCFGLKVGSEFEVGLPLVGKTKVSVQFSGSWKSSTIKGEVRTSAVKVQINEHVTIPPGKCVQIRIDTRRCTKTAPATMYLRTASGIEVQRETTVTSTYHYDQEVHVVPVTN
modifications: left off: His6, N-terminal, state not stated
notes: Recombinant pore-forming lectin of Salpingoeca rosetta (UniProt F2UID9, 329 amino acids) with β-trefoil and aerolysin-like domains
For B1, the “reduction of cell viability” value in the data set on H1299 cells (24 h, 1.36 µM SaroL-1) was ~ 87%. For the same molecule, the IC50 in the data set on H1299 cells (24 h, FCS-containing medium, read-out: concentration at which the percentage of viable cells decreased by half) came out at 0.000271 mM. Also, the “cytotoxicity on Gb3-depleted cells (in words)” value with H1299 cells (H1299 pre-treated with PPMP for 72 h, 24 h with SaroL-1) is given as “remarkably reduced”. In addition, the “GUVs filled with dextran-AF488, average %” value in data set [3] (200 nM SaroL-1, 0 min) worked out at 11.106%; in data set [3] (200 nM SaroL-1, 30 min), 45%; in data set [3] (setting [4]), 45.1678%; in data set [3] (200 nM SaroL-1, 60 min) it was 57.8615%; in data set [3] (200 nM SaroL-1, 120 min), 69%; in data set [3] (setting [5]), 69.3211%. Further, the “GUVs filled with 70 kDa FITC-dextran, average %” value is listed as 4.422% in data set [3] (200 nM SaroL-1, 0 min); 17% in data set [3] (200 nM SaroL-1, 30 min); 16.9551% in data set [3] (setting [4]); 29% in data set [3] (200 nM SaroL-1, 60 min); 28.4248% in data set [3] (200 nM SaroL-1, 60 min, listed as SaroL1); 29% in data set [3] (200 nM SaroL-1, 120 min). Moreover, the “GUVs filled with 70 kDa FITC-dextran, average %” value in data set [3] (setting [5]) worked out at 29.7507%.
